Reference: paper PMC6322573, “Profiling of advanced glycation end products uncovers abiotic stress-specific target proteins in Arabidopsis” (Journal of Experimental Botany, 2018)

Legend:
purified protein [1] = substrate: O=CC(O)COP(=O)(O)O; assay: purified protein; type: biochemical, Arabidopsis thaliana; conditions: non-glycated enzyme, 0.1 mM NADH, alpha-glycerophosphate dehydrogenase 5 U, 10 mM sodium phosphate pH 7.0, 100 mM NaCl, 25 °C
purified protein [2] = substrate: O=CC(O)COP(=O)(O)O; assay: purified protein; conditions: non-glycated enzyme, 10 mM NAD+, 3 mM DTT, 10 mM sodium phosphate pH 8.5, 100 mM NaCl, 25 °C

B1: TPI (chloroplastic triosephosphate isomerase) (Arabidopsis thaliana) (protein)
chain: MAGSGKFFVGGNWKCNGTKDSIAKLISDLNSATLEADVDVVVSPPFVYIDQVKSSLTDRIDISGQNSWVGKGGAFTGEISVEQLKDLGCKWVILGHSERRHVIGEKDEFIGKKAAYALSEGLGVIACIGEKLEEREAGKTFDVCFAQLKAFADAVPSWDNIVVAYEPVWAIGTGKVASPQQAQEVHVAVRGWLKKNVSEEVASKTRIIYGGSVNGGNSAELAKEEDIDGFLVGGASLKGPEFATIVNSVTSKKVAA
notes: measured mass 29273 Da; homodimer
- Km (purified protein [1]): 1.21 (±0.39) mM
- kcat (purified protein [1]): 18.4 ± 2.25 s⁻¹
- kcat/Km (purified protein [1]): 15000 M⁻¹ s⁻¹

B2: GAPC1 (cytosolic glyceraldehyde-3-phosphate dehydrogenase C1) (Arabidopsis thaliana) (protein)
chain: MADKKIRIGINGFGRIGRLVARVVLQRDDVELVAVNDPFITTEYMTYMFKYDSVHGQWKHNELKIKDEKTLLFGEKPVTVFGIRNPEDIPWAEAGADYVVESTGVFTDKDKAAAHLKGGAKKVVISAPSKDAPMFVVGVNEHEYKSDLDIVSNASCTTNCLAPLAKVINDRFGIVEGLMTTVHSITATQKTVDGPSMKDWRGGRAASFNIIPSSTGAAKAVGKVLPALNGKLTGMSFRVPTVDVSVVDLTVRLEKAATYDEIKKAIKEESEGKLKGILGYTEDDVVSTDFVGDNRSSIFDAKAGIALSDKFVKLVSWYDNEWGYSSRVVDLIVHMSKA
- Km (purified protein [2]): 0.77 (±0.21) mM
- kcat (purified protein [2]): 76.4 s⁻¹
- kcat/Km (purified protein [2]): 99000 M⁻¹ s⁻¹
